Results reported in US20240417437A1, “Linker Polypeptides” (Trutino Biosciences Inc., priority 2021, published 2024).
Where no end group is shown, it is not given here. The star is where a group is joined. EDANS = O=S(=O)(O)c1cccc2c(NCCN*)cccc12

B1: Construct B - no TME: mIL2-2x(SG4)-MMPcs1-2x(G4S)-mIL2Ralpha(1-215)-mIgG1Fc (Fc fusion)
chain: APTSSSTSSSTAEAQQQQQQQQQQQQHLEQLLMDLQELLSRMENYRNLKLPRMLTFKFYLPKQATELKDLQCLEDELGPLRHVLDLTQSKSFQLEDAENFISNIRVTVVKLKGSDNTFECQFDDESATVVDFLRRWIAFCQSIISTSPQSGGGGSGGGGGPLGVRGGGGGSGGGGSELCLYDPPEVPNATFKALSYKNGTILNCECKRGFRRLKELVYMRCLGNSWSSNCQCTSNSHDKSRKQVTAQLEHQKEQQTTTDMQKPTQSMHQENLTGHCREPPPWKHEDSKRIYHFVEGQSVHYECIPGYKALQRGPAISICKMKCGKTGWTQPQLTCVDEREHHRFLASEESQGSRNSSPESETSCPITTTDFPQPTETTAMTETFVLTMEYKGCKPCICTVPEVSSVFIFPPKPKDVLTITLTPKVTCVVVDISKDDPEVQFSWFVDDVEVHTAQTQPREEQFNSTFRSVSELPIMHQDWLNGKEFKCRVNSAAFPAPIEKTISKTKGRPKAPQVYTIPPPKEQMAKDKVSLTCMITDFFPEDITVEWQWNGQPAENYKNTQPIMDTDGSYFVYSKLNVQKSNWEAGNTFTCSVLHEGLHNHHTEKSLSHSPGK
B2: Construct GG (collagen IV): mIL2-SGG-KLWVLPK(SEQ ID NO: 200)-MMPcs1-2x(G4S)-mIL2Ra(1-215)-muIgG1Fc (Fc fusion)
chain: APTSSSTSSSTAEAQQQQQQQQQQQQHLEQLLMDLQELLSRMENYRNLKLPRMLTFKFYLPKQATELKDLQCLEDELGPLRHVLDLTQSKSFQLEDAENFISNIRVTVVKLKGSDNTFECQFDDESATVVDFLRRWIAFCQSIISTSPQSGGKLWVLPKGPLGVRGGGGGSGGGGSELCLYDPPEVPNATFKALSYKNGTILNCECKRGFRRLKELVYMRCLGNSWSSNCQCTSNSHDKSRKQVTAQLEHQKEQQTTTDMQKPTQSMHQENLTGHCREPPPWKHEDSKRIYHFVEGQSVHYECIPGYKALQRGPAISICKMKCGKTGWTQPQLTCVDEREHHRFLASEESQGSRNSSPESETSCPITTTDFPQPTETTAMTETFVLTMEYKGCKPCICTVPEVSSVFIFPPKPKDVLTITLTPKVTCVVVDISKDDPEVQFSWFVDDVEVHTAQTQPREEQFNSTFRSVSELPIMHQDWLNGKEFKCRVNSAAFPAPIEKTISKTKGRPKAPQVYTIPPPKEQMAKDKVSLTCMITDFFPEDITVEWQWNGQPAENYKNTQPIMDTDGSYFVYSKLNVQKSNWEAGNTFTCSVLHEGLHNHHTEKSLSHSPGK

What was measured:
[1] = biological target: biotin-labelled collagen IV (Prospec); assay: EDANS peptide (20 µM) on biotin-collagen IV-coated streptavidin magnetic beads, fluorescence Ex 340/Em 490, pH 7.5
[2] = biological target: collagen cross-linked to agarose (Sigma); assay: collagen-agarose pulldown, anti-mouse IL-2 immunoblot, band quantitation
[3] = biological target: collagen cross-linked to agarose (Sigma); assay: collagen-agarose pulldown, anti-mouse IL-2 immunoblot, band intensity of the collagen-bound lane (Input (2%) band: 16707)
[4] = biological target: collagen cross-linked to agarose (Sigma); assay: pulldown with collagen-agarose, immunoblot quantified with iBright imaging system; reference Construct B
[5] = biological target: collagen cross-linked to agarose (Sigma); assay: pulldown with collagen-agarose, immunoblot quantified with iBright imaging system
[6] = biological target: collagen cross-linked to agarose (Sigma); assay: collagen-agarose pulldown, anti-mouse IL-2 immunoblot, band intensity of the collagen-bound lane (Input (2%) band: 15267)

RFU [1]	Bound (% input) [2]	also measured	Binder
297 RFU			GGGSGGGGPLGVRG-{EDANS} [P1]
490 RFU			GGGSGLHERHLNNN-{EDANS} [Peptide 15 (…-*, linker peptide with collagen I targeting sequence)]
4560 RFU			KLWVLPKGPLGVRG-{EDANS} [Peptide 14 (…-*, next generation MMP cleavable linker with collagen IV targeting sequence)]
	0.3 % of input	Bound [3]: 2310	B1
	0.7 % of input	fold of bound fraction over Construct B [4]: 2.5 fold; fraction bound (of input) [5]: < 1 % of input; Bound [6]: 5190	B2
